IntAct's records for PubMed 22483105

Each substance was assayed against ubc4_yeast UBC4 (UniProt P15731).
ubc4_yeast UBC4, sequence (P15731 whole entry): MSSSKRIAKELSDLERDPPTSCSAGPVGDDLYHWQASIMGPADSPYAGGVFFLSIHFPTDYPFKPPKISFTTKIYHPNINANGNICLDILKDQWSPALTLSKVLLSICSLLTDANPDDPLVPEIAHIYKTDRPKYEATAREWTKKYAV

Substance	effect of a mutation on the interaction
E3 ubiquitin-protein ligase RSP5 (Saccharomyces cerevisiae), P39940 D614M	decreasing interaction strength
E3 ubiquitin-protein ligase RSP5 (Saccharomyces cerevisiae), P39940 L607M	decreasing interaction strength
E3 ubiquitin-protein ligase RSP5 (Saccharomyces cerevisiae), P39940 S594M	decreasing interaction strength

Second part, the substance after the results:

effect of a mutation on the interaction	Substance
disrupting interaction strength	E3 ubiquitin-protein ligase RSP5 (Saccharomyces cerevisiae), P39940 W597M
decreasing interaction strength	E3 ubiquitin-protein ligase RSP5 (Saccharomyces cerevisiae), P39940 Y647M
